According to patent US20260248897:

Legend:
RBD of hCoV-229E, P15423 = molecular target: T1, RBD of hCoV-229E, P15423
T1 chain: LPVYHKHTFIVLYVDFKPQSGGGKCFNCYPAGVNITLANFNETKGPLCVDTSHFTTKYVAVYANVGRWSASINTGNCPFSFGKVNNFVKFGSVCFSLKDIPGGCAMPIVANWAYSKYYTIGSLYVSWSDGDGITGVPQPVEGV

[1] = molecular target: RBD of SARS-CoV-2 (B lineage), P0DTC2

B1: gene recombinant of human ERp57 (protein disulfide-isomerase like protein ERp57) (protein)
chain: MGSSHHHHHHSSGLVPRGSHMLESDVLELTDDNFESRISDTGSAGLMLVEFFAPWCGHCKRLAPEYEAAATRLKGIVPLAKVDCTANTNTCNKYGVSGYPTLKIFRDGEEAGAYDGPRTADGIVSHLKKQAGPASVPLRTEEEFKKFISDKDASIVGFFDDSFSEAHSEFLKAASNLRDNYRFAHTNVESLVNEYDDNGEGIILFRPSHLTNKFEDKTVAYTEQKMTSGKIKKFIQENIFGICPHMTEDNKDLIQGKDLLIAYYDVDYEKNAKGSNYWRNRVMMVAKKFLDAGHKLNFAVASRKTFSHELSDFGLESTAGEIPVVAIRTAKGEKFVMQEEFSRDGKALERFLQDYFDGNLKRYLKSEPIPESNDGPVKVVVAENFDEIVNNENKDVLIEFYAPWCGHCKNLEPKYKELGEKLSKDPNIVIAKMDATANDVPSPYEVRGFPTIYFSPANKKLNPKKYEGGRELSDFISYLQREATNPPVIQEEKPKKKKKAQEDL
disulfide bond cleavage activity (remaining rate of native RBD; maleimide-PEG 2k, SDS-PAGE) (RBD of hCoV-229E, P15423): The order of the disulfide bond cleavage activity of the RBD of hCoV-229E from highest to lowest was PDI, ERp46, P5, Erp57, and ERp72.
disulfide bond cleavage activity (remaining rate of native RBD; maleimide-PEG 2k, SDS-PAGE) [1]: The order of the disulfide bond cleavage activity of the RBD from highest to lowest was PDI, ERp46, P5, ERp72, and ERp57.

B2: gene recombinant of human P5 (protein disulfide isomerase family A member 6) (protein)
chain: MGSSHHHHHHSSGLVPRGSHMLYSSSDDVIELTPSNFNREVIQSDSLWLVEFYAPWCGHCQRLTPEWKKAATALKDVVKVGAVDADKHHSLGGQYGVQGFPTIKIFGSNKNRPEDYQGGRTGEAIVDAALSALRQLVKDRLGGRSGGYSSGKQGRSDSSSKKDVIELTDDSFDKNVLDSEDVWMVEFYAPWCGHCKNLEPEWAAAASEVKEQTKGKVKLAAVDATVNQVLASRYGIRGFPTIKIFQKGESPVDYDGGRTRSDIVSRALDLFSDNAPPPELLEIINEDIAKRTCEEHQLCVVAVLPHILDTGAAGRNSYLEVLLKLADKYKKKMWGWLWTEAGAQSELETALGIGGFGYPAMAAINARKMKFALLKGSFSEQGINEFLRELSFGRGSTAPVGGGAFPTIVEREPWDGRDGELPVEDDIDLSDVELDDLGKDEL
disulfide bond cleavage activity (remaining rate of native RBD; maleimide-PEG 2k, SDS-PAGE) (RBD of hCoV-229E, P15423): The order of the disulfide bond cleavage activity of the RBD of hCoV-229E from highest to lowest was PDI, ERp46, P5, Erp57, and ERp72.
disulfide bond cleavage activity (remaining rate of native RBD; maleimide-PEG 2k, SDS-PAGE) [1]: The order of the disulfide bond cleavage activity of the RBD from highest to lowest was PDI, ERp46, P5, ERp72, and ERp57.

B3: gene recombinant of human ERp72 (protein disulfide isomerase family A member 4) (protein)
chain: MGSSHHHHHHSSGLVPRGSHEGPDEDSSNRENAIEDEEEEEEEDDDEEEDDLEVKEENGVLVLNDANFDNFVADKDTVLLEFYAPWCGHCKQFAPEYEKIANILKDKDPPIPVAKIDATSASVLASRFDVSGYPTIKILKKGQAVDYEGSRTQEEIVAKVREVSQPDWTPPPEVTLVLTKENFDEVVNDADIILVEFYAPWCGHCKKLAPEYEKAAKELSKRSPPIPLAKVDATAETDLAKRFDVSGYPTLKIFRKGRPYDYNGPREKYGIVDYMIEQSGPPSKEILTLKQVQEFLKDGDDVIIIGVFKGESDPAYQQYQDAANNLREDYKFHHTFSTEIAKFLKVSQGQLVVMQPEKFQSKYEPRSHMMDVQGSTQDSAIKDFVLKYALPLVGHRKVSNDAKRYTRRPLVVVYYSVDFSFDYRAATQFWRSKVLEVAKDFPEYTFAIADEEDYAGEVKDLGLSESGEDVNAAILDESGKKFAMEPEEFDSDTLREFVTAFKKGKLKPVIKSQPVPKNNKGPVKVVVGKTFDSIVMDPKKDVLIEFYAPWCGHCKQLEPVYNSLAKKYKGQKGLVIAKMDATANDVPSDRYKVEGFPTIYFAPSGDKKNPVKFEGGDRDLEHLSKFIEEHATKLSRTKEEL
disulfide bond cleavage activity (remaining rate of native RBD; maleimide-PEG 2k, SDS-PAGE) (RBD of hCoV-229E, P15423): The order of the disulfide bond cleavage activity of the RBD of hCoV-229E from highest to lowest was PDI, ERp46, P5, Erp57, and ERp72.
disulfide bond cleavage activity (remaining rate of native RBD; maleimide-PEG 2k, SDS-PAGE) [1]: The order of the disulfide bond cleavage activity of the RBD from highest to lowest was PDI, ERp46, P5, ERp72, and ERp57.
